In patent US20140235820A1, “METHODS AND COMPOSITIONS FOR MODULATING THE Wnt PATHWAY” (Genentech, Inc., priority 2010, published 2014):
Non-standard residues stand in square brackets, D forms with d. NMeI = CC[C@H](C)[C@H](NC)C(=O)O; NMeK = CN[C@@H](CCCCN)C(=O)O; NMeS = CN[C@@H](CO)C(=O)O

Tests used:
[1] = molecular target: T1, human LRP6 construct E1E2 (amino acids A20-E631) (human, UniProt O75581 20-631, biotinylated for biolayer interferometry); test: BLI affinity
T1 construct: range 20-631; also called LRP6 E1E2
T1 sequence (looked up): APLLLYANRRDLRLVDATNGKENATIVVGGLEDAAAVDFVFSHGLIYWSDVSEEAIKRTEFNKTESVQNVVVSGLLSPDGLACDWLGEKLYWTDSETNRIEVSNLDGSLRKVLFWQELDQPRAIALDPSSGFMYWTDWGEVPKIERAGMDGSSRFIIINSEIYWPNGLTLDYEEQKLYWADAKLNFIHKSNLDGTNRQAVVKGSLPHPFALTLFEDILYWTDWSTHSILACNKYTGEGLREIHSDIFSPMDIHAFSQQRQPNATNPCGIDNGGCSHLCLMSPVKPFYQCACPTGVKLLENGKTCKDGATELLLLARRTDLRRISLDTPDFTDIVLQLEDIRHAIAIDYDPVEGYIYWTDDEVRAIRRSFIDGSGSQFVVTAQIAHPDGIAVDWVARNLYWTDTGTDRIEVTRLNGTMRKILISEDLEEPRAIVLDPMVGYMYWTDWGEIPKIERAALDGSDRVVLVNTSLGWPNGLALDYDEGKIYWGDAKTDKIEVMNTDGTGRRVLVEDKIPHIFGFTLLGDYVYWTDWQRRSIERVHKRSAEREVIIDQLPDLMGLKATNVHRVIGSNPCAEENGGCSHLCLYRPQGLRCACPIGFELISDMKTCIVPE
Protocol: (§1) Binding kinetics were measured by biolayer interferometry using an Octet Red instrument (ForteBio) as previously described (11). Streptavidin (SA) biosensors were loaded with biotinylated hLRP6 in 50 mMTris, pH 8, 300 mM NaCl, 5% (v/v) glycerol, and 0.05% (w/v) Triton X-100. The loaded biosensors were washed in the same buffer before carrying out association and dissociation measurements for the indicated times. The Kd of each interaction was determined using steady state-analysis through the Octet Red software v6.3. Each reported value represents an average of three or more experiments at different concentrations, with a fitted experimental curve for which the square of the correlation coefficient (R²) is above 0.96.

[2] = molecular target: T2, human LRP6 construct E1 (amino acids A20-D325) (human, UniProt O75581 20-325); test: synthetic peptides, competition IC50 (FIG. 18)
T2 construct: range 20-325; In the Fab crystal E1 arose from E1E2 degraded beyond Arg 335; residues Ala20 to Lys324 were traced; also called LRP6 E1; E1 domain
T2 sequence (looked up): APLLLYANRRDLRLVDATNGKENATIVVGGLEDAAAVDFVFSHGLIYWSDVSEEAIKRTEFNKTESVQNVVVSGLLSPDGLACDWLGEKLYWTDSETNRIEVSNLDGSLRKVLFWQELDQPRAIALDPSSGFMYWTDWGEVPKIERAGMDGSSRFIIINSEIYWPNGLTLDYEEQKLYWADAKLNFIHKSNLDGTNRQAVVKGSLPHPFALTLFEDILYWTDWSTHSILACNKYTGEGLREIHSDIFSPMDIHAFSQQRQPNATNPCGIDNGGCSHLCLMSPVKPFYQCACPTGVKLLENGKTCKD

LRP6 E3E4 = molecular target: T3, LRP6 E3E4 (Homo sapiens, UniProt O75581); test: Biolayer interferometry binding to LRP6 E3E4
T3 construct: construct E3E4 amino acids E631-Q1253 of LPR6; made in house; host or cells: Tni insect cells (baculovirus, secreted)
T3 sequence (O75581 631-1253): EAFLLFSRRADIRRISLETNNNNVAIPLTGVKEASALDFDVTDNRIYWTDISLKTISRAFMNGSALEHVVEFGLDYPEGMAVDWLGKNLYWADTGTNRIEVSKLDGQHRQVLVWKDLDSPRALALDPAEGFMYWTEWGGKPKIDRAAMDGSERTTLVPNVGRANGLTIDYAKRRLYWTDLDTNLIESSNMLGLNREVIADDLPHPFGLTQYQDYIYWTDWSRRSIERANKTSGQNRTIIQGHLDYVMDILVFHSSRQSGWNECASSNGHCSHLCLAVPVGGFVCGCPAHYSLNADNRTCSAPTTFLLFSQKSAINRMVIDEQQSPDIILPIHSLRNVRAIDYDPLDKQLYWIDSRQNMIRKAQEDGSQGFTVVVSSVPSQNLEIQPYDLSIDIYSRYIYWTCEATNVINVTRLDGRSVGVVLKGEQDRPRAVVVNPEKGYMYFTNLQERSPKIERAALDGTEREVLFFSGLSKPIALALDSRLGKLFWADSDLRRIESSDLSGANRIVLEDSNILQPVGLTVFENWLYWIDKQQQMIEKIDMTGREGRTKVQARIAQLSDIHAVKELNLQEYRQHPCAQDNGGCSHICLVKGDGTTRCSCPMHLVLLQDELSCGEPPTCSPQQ
Protocol: as §1, with “(R^2)” for “(R²)”
(§2) The interaction of the different Dkks and sclerostin with various domains of LRP6 was measured using a biolayer interferometry assay (11). Purified receptors contained individual β-propeller-EGF-like units (E1, E2, or E4), two β-propellers (E1E2 or E3E4), or four β-propellers (E1E4))—as follows:
(§3) Human LRP6: construct E1E4-amino acids A20-Q1253 of LPR6; construct E1E2-amino acids A20-E631 of LPR6; construct E3E4 amino acids E631-Q1253 of LPR6; construct E1-amino acids A20-D325 of LPR6; construct E2-amino acids […]-E631 of LPR6; construct E4-T933-Q1253. The individual LRP6 β-propeller E3 could not be expressed.

LRP6 E1E4 = molecular target: T4, LRP6 E1E4 (Homo sapiens, UniProt O75581); test: Biolayer interferometry binding to LRP6 E1E4
T4 construct: construct E1E4-amino acids A20-Q1253 of LPR6; made in house; host or cells: Tni insect cells (baculovirus, secreted)
T4 sequence (O75581 20-1253): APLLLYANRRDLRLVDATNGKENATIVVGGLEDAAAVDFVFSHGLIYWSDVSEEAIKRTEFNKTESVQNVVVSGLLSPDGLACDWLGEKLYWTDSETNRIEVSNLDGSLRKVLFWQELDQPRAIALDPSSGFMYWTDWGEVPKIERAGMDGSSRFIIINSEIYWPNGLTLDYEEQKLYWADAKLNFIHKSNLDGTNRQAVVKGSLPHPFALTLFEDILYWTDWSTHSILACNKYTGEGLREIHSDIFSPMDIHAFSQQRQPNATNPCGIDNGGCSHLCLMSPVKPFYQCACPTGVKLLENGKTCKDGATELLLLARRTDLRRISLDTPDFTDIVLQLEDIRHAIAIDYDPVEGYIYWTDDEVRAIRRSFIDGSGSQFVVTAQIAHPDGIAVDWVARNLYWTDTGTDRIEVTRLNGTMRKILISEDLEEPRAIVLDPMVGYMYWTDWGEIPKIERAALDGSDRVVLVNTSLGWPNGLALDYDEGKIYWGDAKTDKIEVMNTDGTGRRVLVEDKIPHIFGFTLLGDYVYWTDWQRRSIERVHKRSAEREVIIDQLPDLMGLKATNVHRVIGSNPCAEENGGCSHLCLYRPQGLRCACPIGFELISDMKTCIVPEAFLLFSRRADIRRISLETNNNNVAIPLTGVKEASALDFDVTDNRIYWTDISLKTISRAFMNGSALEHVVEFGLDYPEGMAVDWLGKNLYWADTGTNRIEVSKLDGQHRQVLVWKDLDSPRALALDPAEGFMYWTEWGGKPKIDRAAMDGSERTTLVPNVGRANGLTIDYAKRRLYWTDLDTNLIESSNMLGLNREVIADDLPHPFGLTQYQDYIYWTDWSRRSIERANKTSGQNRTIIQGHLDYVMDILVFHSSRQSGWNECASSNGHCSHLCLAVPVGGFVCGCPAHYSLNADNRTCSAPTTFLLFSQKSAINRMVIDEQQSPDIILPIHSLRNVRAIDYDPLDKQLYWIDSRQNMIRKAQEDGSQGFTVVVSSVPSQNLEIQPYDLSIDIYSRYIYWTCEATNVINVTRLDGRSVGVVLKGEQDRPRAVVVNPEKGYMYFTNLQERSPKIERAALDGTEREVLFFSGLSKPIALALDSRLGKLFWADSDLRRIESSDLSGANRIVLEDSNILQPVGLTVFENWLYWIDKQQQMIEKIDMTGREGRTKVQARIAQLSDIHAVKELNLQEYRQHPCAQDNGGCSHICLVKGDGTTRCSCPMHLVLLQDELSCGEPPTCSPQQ
Protocol: as §1, with “(R^2)” for “(R²)”
as §2, §3

LRP6 E1E2 = molecular target: T5, LRP6 E1E2 (Homo sapiens, UniProt O75581); test: Biolayer interferometry binding to LRP6 E1E2
T5 construct: construct E1E2-amino acids A20-E631 of LPR6; made in house; host or cells: Tni insect cells (baculovirus, secreted)
T5 sequence (O75581 20-631): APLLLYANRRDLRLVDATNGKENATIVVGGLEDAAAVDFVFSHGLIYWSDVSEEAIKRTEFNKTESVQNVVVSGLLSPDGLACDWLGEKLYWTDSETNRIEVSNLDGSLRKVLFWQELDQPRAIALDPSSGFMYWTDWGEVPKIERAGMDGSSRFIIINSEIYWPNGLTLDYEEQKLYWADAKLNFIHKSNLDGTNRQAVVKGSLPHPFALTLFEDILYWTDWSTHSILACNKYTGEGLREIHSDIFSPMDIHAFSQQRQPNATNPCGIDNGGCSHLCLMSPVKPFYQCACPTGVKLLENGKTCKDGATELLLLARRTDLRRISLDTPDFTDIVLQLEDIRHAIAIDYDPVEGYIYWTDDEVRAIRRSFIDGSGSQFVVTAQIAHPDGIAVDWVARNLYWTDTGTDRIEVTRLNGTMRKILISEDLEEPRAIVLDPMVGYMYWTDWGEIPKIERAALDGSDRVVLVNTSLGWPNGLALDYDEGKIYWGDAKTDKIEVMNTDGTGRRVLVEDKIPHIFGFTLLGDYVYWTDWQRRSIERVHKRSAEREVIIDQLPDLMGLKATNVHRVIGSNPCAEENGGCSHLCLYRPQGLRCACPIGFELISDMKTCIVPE
Protocol: as §1, with “(R^2)” for “(R²)”
as §2, §3

B1: Sclerostin Asn117Ala (ligand, UniProt Q9BQB4 24-213, looked up)
chain: QGWQAFKNDATEIIPELGEYPEPPPELENNKTMNRAENGGRPPHHPFETKDVSEYSCRELHFTRYVTDGPCRSAKPVTELVCSGQCGPARLLPAAIGRGKWWRPSGPDFRCIPDRYRAQRVQLLCPGGEAPRARKVRLVASCKCKRLTRFHNQSELKDFGTEAARPQKGRKPRPRARSAKANQAELENAY
notes: also called sclerostin N117A
fold loss in affinity against wild-type sclerostin [1]: 14 fold

B2: Ac-NSIKGY-am (peptide)
peptide: Ac-NSIKGY-NH2
notes: also called minimized analogue of the Dkk1 peptide; Lys parent
binding result [2]: binds

Ac-NSEKGY-NH2 [Ac-NSIKGY-am with Glu in place of Ile]
binding result [2]: no binding

Ac-QSIKGY-NH2 [Ac-NSIKGY-am with Gln in place of Asn]
binding result [2]: no binding

B3: Dkk4: Dickkopf 4, carrier-free protein from R&D Systems (protein, UniProt Q9UBT3 19-224, looked up)
Dickkopf-related protein 4: LVLDFNNIRSSADLHGARKGSQCLSDTDCNTRKFCLQPRDEKPFCATCRGLRRRCQRDAMCCPGTLCVNDVCTTMEDATPILERQLDEQDGTHAEGTTGHPVQENQPKRKPSIKKSQGRKGQEGESCLRTFDCGPGLCCARHFWTKICKPVLLEGQVCSRRGHKDTAQAPEIFQRCDCGPGLLCRSQLTSNRQHARLRVCQKIEKL
binding to LRP6 E3E4 (in words) (LRP6 E3E4): very weak binding | binding to LRP6 E1E4 (in words) (LRP6 E1E4): very weak binding | binding to LRP6 E1E2 (in words) (LRP6 E1E2): did not bind

B4: Dkk1 Asn40Ala (ligand, human, UniProt O94907 32-266, looked up)
chain: TLNSVLNSAAIKNLPPPLGGAAGHPGSAVSAAPGILYPGGNKYQTIDNYQPYPCAEDEECGTDEYCASPTRGGDAGVQICLACRKRRKRCMRHAMCCPGNYCKNGICVSSDQNHFRGEIEETITESFGNDHSTLDGYSRRTTLSSKMYHTKGQEGSVCLRSSDCASGLCCARHFWSKICKPVLKEGQVCTKHRRKGSHGLEIFQRCYCGEGLSCRIQKDHHQASNSSRLHTCQRH
notes: also called Dkk1 N40A
fold loss in affinity against wild-type Dkk1 [1]: 75 fold | binding to LRP6 E3E4 (in words) (LRP6 E3E4): not to E3E4 | binding to LRP6 E1E4 (in words) (LRP6 E1E4): retain binding | binding to LRP6 E1E2 (in words) (LRP6 E1E2): affect binding

B5: Ac-NSIKGY-am with an Nα-methyl amino acid at the K position (peptide)
peptide: Ac-NSI[NMeK]GY-NH2
SMILES: CC[C@H](C)[C@H](NC(=O)[C@H](CO)NC(=O)[C@H](CC(N)=O)NC(C)=O)C(=O)N(C)[C@@H](CCCCN)C(=O)NCC(=O)N[C@@H](Cc1ccc(O)cc1)C(N)=O
binding result [2]: no binding

B6: Ac-NSIKGY-am with an Nα-methyl amino acid at the I position (peptide)
peptide: Ac-NS[NMeI]KGY-NH2
SMILES: CC[C@H](C)[C@@H](C(=O)N[C@@H](CCCCN)C(=O)NCC(=O)N[C@@H](Cc1ccc(O)cc1)C(N)=O)N(C)C(=O)[C@H](CO)NC(=O)[C@H](CC(N)=O)NC(C)=O
binding result [2]: no binding

B7: Ac-NSIKGY-am with an Nα-methyl amino acid at the S position (peptide)
peptide: Ac-N[NMeS]IKGY-NH2
SMILES: CC[C@H](C)[C@H](NC(=O)[C@H](CO)N(C)C(=O)[C@H](CC(N)=O)NC(C)=O)C(=O)N[C@@H](CCCCN)C(=O)NCC(=O)N[C@@H](Cc1ccc(O)cc1)C(N)=O
binding result [2]: no binding
